Results as given in patent US6051217, “Therapeutic uses of interleukin-3 (IL-3) multiple mutation polypeptides” (G. D. Searle & Co., dated 2000).
Numbering of substitutions follows the chain as printed.

T1: hIL-3 receptor (human, UniProt P26951)
T1 sequence: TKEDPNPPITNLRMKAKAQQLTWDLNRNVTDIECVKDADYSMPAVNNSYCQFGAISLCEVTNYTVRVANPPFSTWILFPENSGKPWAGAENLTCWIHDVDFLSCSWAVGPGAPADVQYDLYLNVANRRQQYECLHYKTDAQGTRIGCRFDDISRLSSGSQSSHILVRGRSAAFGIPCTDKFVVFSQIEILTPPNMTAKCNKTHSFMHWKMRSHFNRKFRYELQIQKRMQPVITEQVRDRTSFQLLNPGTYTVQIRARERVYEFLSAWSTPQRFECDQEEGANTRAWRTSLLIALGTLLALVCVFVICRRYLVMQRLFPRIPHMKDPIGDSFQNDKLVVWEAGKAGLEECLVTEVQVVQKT

B1: pMON13298 polypeptide (ligand)
chain: MANCSNMIDEIITHLKQPPLPLLDFNNLNGEDQDILMENNLRRPNLEAFNRAVKSLQNASGIEAILRNLQPCLPSATAAPSRHPIIIKAGDWQEFREKLTFYLVTLEQAQEQQ
B2: pMON13299 polypeptide (ligand)
chain: B1 chain with Q70V, I86T
B3: pMON13300 polypeptide (ligand)
chain: B1 chain with Q70V, I86T, T105S, Q108H
B4: pMON13301 polypeptide (ligand)
chain: MANCSIMIDEIIHHLKRPPAPLLDPNNLNAEDVDILMERNLRLPNLESFVRAVKNLENASAIESILKNLLPCLPLATAAPTRHPIHIKDGDWNEFRRKLTFYLKTLENAQAQQ
B5: pMON13302 polypeptide (ligand)
chain: B4 chain with A20N, A30S, V33M, L43T, E47L, S48A, N55H
B6: pMON13303 polypeptide (ligand)
chain: B4 chain with R17V, P25S, A30S, V33M, E47L, S48A
B7: pMON13287 polypeptide (ligand)
chain: MANCSIMIDEIIHHLKRPPAPLLDPNNLNAEDVDILMERNLRLPNLESFVRAVKNLENASGIEAILRNLQPCLPSATAAPSRHPIIIKAGDWQEFREKLTFYLVTLEQAQEQQ
B8: pMON13288 polypeptide (ligand)
chain: B7 chain with A20N, A30S, V33M, L43T, E47L, S48A, N55H
B9: pMON13289 polypeptide (ligand)
chain: B7 chain with R17V, P25S, A30S, V33M, E47L, S48A
B10: pMON13290 polypeptide (ligand)
chain: B7 chain with Q70V, I86T
B11: pMON13292 polypeptide (ligand)
chain: B7 chain with R17V, P25S, A30S, V33M, E47L, S48A, Q70V, I86T
B12: pMON13294 polypeptide (ligand)
chain: MANCSIMIDEIIHHLKRPPNPLLDPNNLNSEDMDILMERNLRTPNLLAFVRAVKHLENASGIEAILRNLVPCLPSATAAPSRHPITIKAGDWQEFREKLTFYLVSLEHAQEQQ
B13: pMON13295 polypeptide (ligand)
chain: B12 chain with R17V, N20A, P25S, T43L, H55N
B14: pMON13312 polypeptide (ligand)
chain: B12 chain with S105T, H108Q
B15: pMON13313 polypeptide (ligand)
chain: B7 chain with Q70V, I86T, T105S, Q108H
B16: pMON13285 polypeptide (ligand)
chain: MANCSNMIDEIITHLKQPPLPLLDFNNLNDEDMSILMDNNLRRPNLEAFNRAVKSLQNASAIESILKNLLPCLPLATAAPTRHPIHIKDGDWNEFRRKLTFYLKTLENAQAQQ
B17: pMON13286 polypeptide (ligand)
chain: B16 chain with D38E
B18: pMON13325 polypeptide (ligand)
chain: B16 chain with D38E, K104W
B19: pMON13326 polypeptide (ligand)
chain: B16 chain with K104W
B20: pMON13330 polypeptide (ligand)
chain: B16 chain with H83R, H86I, K88R, K104W
B21: pMON13329 polypeptide (ligand)
chain: B16 chain with D38E, H86I, K88R, K104W
B22: pMON13364 polypeptide (ligand)
chain: NCSIMIDEIIHHLKRPPNPLLDPNNLNSEDMDILMERNLRTPNLLAFVRAVKHLENASAIESILKNLLPCLPLATAAPTRHPIHIKDGDWNEFRRKLTFYLKTLENAQAQQ
B23: pMON13475 polypeptide (ligand)
chain: B7 chain with I11A, A30D, D34S, E38D
B24: pMON13366 polypeptide (ligand)
chain: B7 chain with A30N, D34S, E38D
B25: pMON13367 polypeptide (ligand)
chain: B7 chain with D34S, E38D
B26: pMON13368 polypeptide (ligand)
chain: B7 chain with I11A, R17V, P25S, A30S, V33M, E47L, S48A
B27: pMON13369 polypeptide (ligand)
chain: B7 chain with A30D, D34S, E38D
B28: pMON13370 polypeptide (ligand)
chain: B7 chain with V33M, D34S, E38D
B29: pMON13373 polypeptide (ligand)
chain: B7 chain with A30D, V33M, D34S, E38D
B30: pMON13374 polypeptide (ligand)
chain: B7 chain with A30S, V33M, D34S, E38D
B31: pMON13375 polypeptide (ligand)
chain: MANCSIMIDEIIHHLKRPPAPLLDPNNLNAEDVDILMERNLRLPNLESFVRAVKNLENASGIEAILRNLQPCLPSATAAPSRHPIIIKAGDWQEFREKLTFYLVTLE
B32: pMON13376 polypeptide (ligand)
chain: B31 chain with A2D, I11A, T100Q
B33: pMON13379 polypeptide (ligand)
chain: B7 chain with D34S, E38D, T100Q
B34: pMON13380 polypeptide (ligand)
chain: B7 chain with I11A, R17V, P25S, A30S, V33M, E47L, S48A, T100Q
B35: pMON13381 polypeptide (ligand)
chain: B7 chain with Q70W
B36: pMON13382 polypeptide (ligand)
chain: B7 chain with T100Q, V104W
B37: pMON13384 polypeptide (ligand)
chain: B7 chain with T100Q
B38: pMON13385 polypeptide (ligand)
chain: B7 chain with R17V, A20R, L22S
B39: pMON13387 polypeptide (ligand)
chain: B7 chain with E38D
B40: pMON13388 polypeptide (ligand)
chain: B7 chain with E38D, P44S
B41: pMON13389 polypeptide (ligand)
chain: B7 chain with A30D, V33M
B42: pMON13391 polypeptide (ligand)
chain: B7 chain with L22S
B43: pMON13392 polypeptide (ligand)
chain: B7 chain with A30D
B44: pMON13393 polypeptide (ligand)
chain: B7 chain with I11A, L22S, A30D, V33M, D34S
B45: pMON13396 polypeptide (ligand)
chain: B7 chain with K88R, A89M
B46: pMON13397 polypeptide (ligand)
chain: B7 chain with Q70W, K88R, A89M
B47: pMON13404 polypeptide (ligand)
chain: B31 chain with T100Q

Target: T1, hIL-3 receptor
Assay: cell-based or functional assay

| Binder | Relative Biological Activity (AML 193 proliferation) |
| --- | --- |
| B1 | 3 EC50 (1-133)hIL-3 / EC50 mutant |
| B2 | 2 EC50 (1-133)hIL-3 / EC50 mutant |
| B3 | 3 EC50 (1-133)hIL-3 / EC50 mutant |
| B4 | 2 EC50 (1-133)hIL-3 / EC50 mutant |
| B5 | 1.2 EC50 (1-133)hIL-3 / EC50 mutant |
| B6 | 0.6 EC50 (1-133)hIL-3 / EC50 mutant |
| B7 | 26 EC50 (1-133)hIL-3 / EC50 mutant |
| B8 | 24 EC50 (1-133)hIL-3 / EC50 mutant |
| B9 | 13 EC50 (1-133)hIL-3 / EC50 mutant |
| B10 | 20 EC50 (1-133)hIL-3 / EC50 mutant |
| B11 | 6 EC50 (1-133)hIL-3 / EC50 mutant |
| B12 | 3 EC50 (1-133)hIL-3 / EC50 mutant |
| B13 | 3 EC50 (1-133)hIL-3 / EC50 mutant |
| B14 | 4 EC50 (1-133)hIL-3 / EC50 mutant |
| B15 | 8 EC50 (1-133)hIL-3 / EC50 mutant |
| B16 | 32 EC50 (1-133)hIL-3 / EC50 mutant |
| B17 | 8 EC50 (1-133)hIL-3 / EC50 mutant |
| B18 | 8 EC50 (1-133)hIL-3 / EC50 mutant |
| B19 | 25 EC50 (1-133)hIL-3 / EC50 mutant |
| B20 | 19 EC50 (1-133)hIL-3 / EC50 mutant |
| B21 | 10 EC50 (1-133)hIL-3 / EC50 mutant |
| B22 | 13 EC50 (1-133)hIL-3 / EC50 mutant |
| B23 | 7 EC50 (1-133)hIL-3 / EC50 mutant |
| B24 | 38 EC50 (1-133)hIL-3 / EC50 mutant |

| Binder | Relative Biological Activity (AML 193 proliferation) |
| --- | --- |
| B25 | 36 EC50 (1-133)hIL-3 / EC50 mutant |
| B26 | 1.6 EC50 (1-133)hIL-3 / EC50 mutant |
| B27 | 10 EC50 (1-133)hIL-3 / EC50 mutant |
| B28 | 6 EC50 (1-133)hIL-3 / EC50 mutant |
| B29 | 12 EC50 (1-133)hIL-3 / EC50 mutant |
| B30 | 6 EC50 (1-133)hIL-3 / EC50 mutant |
| B31 | 14 EC50 (1-133)hIL-3 / EC50 mutant |
| B32 | 0.4 EC50 (1-133)hIL-3 / EC50 mutant |
| B33 | 0.9 EC50 (1-133)hIL-3 / EC50 mutant |
| B34 | 0.05 EC50 (1-133)hIL-3 / EC50 mutant |
| B35 | 10 EC50 (1-133)hIL-3 / EC50 mutant |
| B36 | 38 EC50 (1-133)hIL-3 / EC50 mutant |
| B37 | 0.25 EC50 (1-133)hIL-3 / EC50 mutant |
| B38 | 1 EC50 (1-133)hIL-3 / EC50 mutant |
| B39 | 32 EC50 (1-133)hIL-3 / EC50 mutant |
| B40 | 23 EC50 (1-133)hIL-3 / EC50 mutant |
| B41 | 10 EC50 (1-133)hIL-3 / EC50 mutant |
| B42 | 30 EC50 (1-133)hIL-3 / EC50 mutant |
| B43 | 17 EC50 (1-133)hIL-3 / EC50 mutant |
| B44 | 32 EC50 (1-133)hIL-3 / EC50 mutant |
| B45 | 20 EC50 (1-133)hIL-3 / EC50 mutant |
| B46 | 16 EC50 (1-133)hIL-3 / EC50 mutant |
| B47 | 1.3 EC50 (1-133)hIL-3 / EC50 mutant |
